# US20250034275A1 (CHIA TAI TIANQING PHARMACEUTICAL GROUP, published 2025)
# Like-named read-outs stand apart in the source and are kept apart here.
# T1: human Trop-2-His (human, UniProt P09758 27-274, limits assumed)
# T1 construct: by analogy with the macaque construct it is probably the extracellular domain with a His tag; also called Trop-2-His protein
# T1 sequence: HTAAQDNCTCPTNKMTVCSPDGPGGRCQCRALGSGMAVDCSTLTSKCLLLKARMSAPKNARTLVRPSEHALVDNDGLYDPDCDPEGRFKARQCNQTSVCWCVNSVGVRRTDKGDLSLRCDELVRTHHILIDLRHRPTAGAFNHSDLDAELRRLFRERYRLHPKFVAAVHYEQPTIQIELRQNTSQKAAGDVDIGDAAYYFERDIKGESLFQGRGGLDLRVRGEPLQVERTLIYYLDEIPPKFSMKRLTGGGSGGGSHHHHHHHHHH
# B1: TINA (antibody, INN chains, looked up, V domains shown)
# VH: QVQLVQSGAEVKKPGASVKVSCKASGYTFTTAGMQWVRQAPGQGLEWMGWINTHSGVPKYAEDFKGRVTISADTSTSTAYLQLSSLKSEDTAVYYCARSGFGSSYWYFDVWGQGTLVTVSS
# VL: DIQMTQSPSSLSASVGDRVTITCKASQDVSTAVAWYQQKPGKAPKLLIYSASYRYTGVPSRFSGSGSGTDFTLTISSLQPEDFAVYYCQQHYITPLTFGQGTKLEIK
# What was measured:
# [1] = target: human Trop-2 (on the surface of human cell lines) (human) (UniProt P09758); assay: cell-based or functional assay
# [2] = target: human Trop-2 (on the surface of human cell lines) (human) (UniProt P09758); assay: flow cytometry, HCC38 cells
# [3] = target: human Trop-2 (on the surface of human cell lines) (human) (UniProt P09758); assay: flow cytometry, HCC38 cells; remark: listed apart in the source
# [4] = target: human Trop-2 (on the surface of human cell lines) (human) (UniProt P09758); assay: flow cytometry, HCC38 cells; remark: listed apart in the source
# [5] = target: human Trop-2 (on the surface of human cell lines) (human) (UniProt P09758); assay: flow cytometry, HCC1806 cells
# [6] = target: human Trop-2 (on the surface of human cell lines) (human) (UniProt P09758); assay: flow cytometry, HCC1806 cells; remark: listed apart in the source
# [7] = target: human Trop-2 (on the surface of human cell lines) (human) (UniProt P09758); assay: flow cytometry, OVCAR-3 cells
# [8] = target: human Trop-2 (on the surface of human cell lines) (human) (UniProt P09758); assay: flow cytometry, HCC1806 cells; remark: listed apart in the source
# [9] = target: human Trop-2 (on the surface of human cell lines) (human) (UniProt P09758); assay: flow cytometry, OVCAR-3 cells; remark: listed apart in the source
# [10] = target: Macaque Trop-2-His (macaque); assay: ELISA, plate-coated macaque Trop-2-His
# [11] = target: Macaque Trop-2-His (macaque); assay: ELISA, plate-coated macaque Trop-2-His; remark: listed apart in the source
# [12] = target: Macaque Trop-2-His (macaque); assay: ELISA, plate-coated macaque Trop-2-His; remark: listed apart in the source
# [13] = target: human Trop-2 (on the surface of human cell lines) (human) (UniProt P09758); assay: flow cytometry, PC-3 cells, antibody at 3 ug/mL
# human Trop-2-His [14] = target: T1, human Trop-2-His; assay: ELISA, plate-coated human Trop-2-His
# [15] = target: human Trop-2 (on the surface of human cell lines) (human) (UniProt P09758); assay: flow cytometry, HCC38 cells, antibody at 3 ug/mL
# [16] = target: human Trop-2 (on the surface of human cell lines) (human) (UniProt P09758); assay: flow cytometry, HUVEC cells, antibody at 3 ug/mL
# [17] = target: human Trop-2 (on the surface of human cell lines) (human) (UniProt P09758); assay: flow cytometry, Capan-1 cells, antibody at 3 ug/mL
# [18] = target: human Trop-2 (on the surface of human cell lines) (human) (UniProt P09758); assay: flow cytometry, HCC1806 cells, antibody at 3 ug/mL
# [19] = target: human Trop-2 (on the surface of human cell lines) (human) (UniProt P09758); assay: flow cytometry, OVCAR-3 cells, antibody at 3 ug/mL
# [20] = target: human Trop-2 (on the surface of human cell lines) (human) (UniProt P09758); assay: flow cytometry, NCI-H322 cells, antibody at 3 ug/mL
# human Trop-2-His [21] = target: T1, human Trop-2-His; assay: SPR (Biacore 8K), antibody captured, Trop-2-His as analyte
# Outline: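 Antibody captured on anti-human IgG-coated CM5 chip; human Trop-2-His flowed as analyte with real-time association/dissociation recording, 3M MgCl₂ regeneration. Double-subtracted curves fit to Langmuir 1:1 model giving ka, kd and KD.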
binder,measurement,setting,value
B1,"ADCC reporter (Jurkat-CD16a v158-NFAT-luciferase), target cell H322, EC50",[1],0.27 nM
same,"ADCC reporter (Jurkat-CD16a v158-NFAT-luciferase), target cell HCC1806, EC50",[1],0.46 nM
same,"ADCC, PBMC killing (LDH), H322, EC50",[1],0.02 nM
same,"ADCC, PBMC killing (LDH), H322, Maximum killing (%)",[1],49.8%
same,"ADCC, PBMC killing (LDH), HCC1806, EC50",[1],0.07 nM
same,"ADCC, PBMC killing (LDH), HCC1806, Maximum killing (%)",[1],38.5%
same,EC50,[2],1.21 nM
same,EC50,[3],0.79 nM
same,EC50,[4],1.04 nM
same,EC50,[5],1.44 nM
same,EC50,[6],0.84 nM
same,EC50,[7],1.29 nM
same,EC50,[8],0.73 nM
same,EC50,[9],1.28 nM
same,EC50,[10],0.106 nM
same,EC50,[11],0.063 nM
same,EC50,[12],0.046 nM
same,MFI,[13],68500
same,Positive rate (%),[13],69.1%
same,Ratio (MFI of TINA to MFI of the IgG1 control),[13],7.7
same,EC50,human Trop-2-His [14],0.083 nM
same,EC50,human Trop-2-His [14]; record 2,0.166 nM
same,MFI,[15],3.85e+06
same,Positive rate (%),[15],99.3%
same,Ratio (MFI of TINA to MFI of the IgG1 control),[15],119
same,MFI,[16],125000
same,Positive rate (%),[16],22.9%
same,Ratio (MFI of TINA to MFI of the IgG1 control),[16],6.1
same,MFI,[17],1.21e+06
same,Positive rate (%),[17],98.4%
same,Ratio (MFI of TINA to MFI of the IgG1 control),[17],18.4
same,MFI,[18],1.66e+06
same,Positive rate (%),[18],99.9%
same,Ratio (MFI of TINA to MFI of the IgG1 control),[18],102
same,MFI,[19],182000
same,Positive rate (%),[19],99%
same,Ratio (MFI of TINA to MFI of the IgG1 control),[19],15.4
same,MFI,[20],2.83e+06
same,Positive rate (%),[20],100%
same,Ratio (MFI of TINA to MFI of the IgG1 control),[20],133
same,Kd,human Trop-2-His [21],12.5 nM
same,koff,human Trop-2-His [21],0.00239 s⁻¹
same,kon,human Trop-2-His [21],191000 M⁻¹ s⁻¹
